Data as given in the supplement of paper PMC9233669.
Fewer inactive variants are shown than the library holds.

Assays:
[1] = system: biotinyl-Phe-oxazolone; test: self-aminoacylation, catalytic enhancement (BFO) (fold over background); higher = more active; k-Seq, kA / k0A0; sequences stand for … in GGGAAUGGAUCCACAUCUACGAAUUC…UUCACUGCAGACUUGACGAAGCUG
How it was run: (§1)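 Working in 50 μL HEPES/NaCl/KCl/MgCl2/CaCl2 buffer with 5% acetonitrile at pH 6.9–7.0, mutagenized RNA pools (0.43 μM; 21-nt variable region) were reacted with 2–1250 μM of each biotinyl-aminoacyl-oxazolone for 90 minutes at room temperature. Streptavidin capture followed, with quantification by triplicate qPCR and Illumina sequencing. Catalytic enhancement is reported as median kA over the uncatalyzed rate, the low-activity peak of a bimodal Gaussian fit to the data.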

[2] = system: biotinyl-Ile-oxazolone; test: self-aminoacylation, catalytic enhancement (BIO) (fold over background); higher = more active; k-Seq, kA / k0A0; sequences stand for … in GGGAAUGGAUCCACAUCUACGAAUUC…UUCACUGCAGACUUGACGAAGCUG
How it was run: as §1

[3] = system: biotinyl-Met-oxazolone; test: self-aminoacylation, catalytic enhancement (BMO) (fold over background); higher = more active; k-Seq, kA / k0A0; sequences stand for … in GGGAAUGGAUCCACAUCUACGAAUUC…UUCACUGCAGACUUGACGAAGCUG
How it was run: as §1

[4] = system: biotinyl-Val-oxazolone; test: self-aminoacylation, catalytic enhancement (BVO) (fold over background); higher = more active; k-Seq, kA / k0A0; sequences stand for … in GGGAAUGGAUCCACAUCUACGAAUUC…UUCACUGCAGACUUGACGAAGCUG
How it was run: as §1

[5] = system: biotinyl-Leu-oxazolone; test: self-aminoacylation, catalytic enhancement (BLO) (fold over background); higher = more active; k-Seq, kA / k0A0; sequences stand for … in GGGAAUGGAUCCACAUCUACGAAUUC…UUCACUGCAGACUUGACGAAGCUG
How it was run: as §1

[6] = system: biotinyl-Trp-oxazolone; test: self-aminoacylation, catalytic enhancement (BWO) (fold over background); higher = more active; k-Seq, kA / k0A0; sequences stand for … in GGGAAUGGAUCCACAUCUACGAAUUC…UUCACUGCAGACUUGACGAAGCUG
How it was run: as §1

Row | Sequence | self-aminoacylation [1] | self-aminoacylation [2] | self-aminoacylation [3] | self-aminoacylation [4] | self-aminoacylation [5] | self-aminoacylation [6]
1 | AUUCACAUAGGUCAUCGGCUG [Fam2.2 aminoacylation ribozyme variant] | 7.68 | 1.72 | 1.64 | 1.78 | 1.61 | 1.89
2 | AUUCACAUAGGUCAUCGGGAG [Fam2.2 aminoacylation ribozyme variant] | 0.953 | 1 | 1.13 | 1.19 | 0.985 | 1.76
3 | AUUCACAUUGGUCAUCGGGUG [Fam2.2 aminoacylation ribozyme variant] | 82.8 | 6.31 | 10.1 | 5.97 | 12.8 | 8.88
4 | AUUCACCAAGAUCAUCGGGUG [Fam2.2 aminoacylation ribozyme variant] | 33.2 | 3.1 | 4.4 | 3.21 | 5.42 | 4.68
5 | AUUCACCAAGGGCAUCGGGUG [Fam2.2 aminoacylation ribozyme variant] | 35.1 | 4.37 | 5.2 | 5.01 | 6.01 | 4.74
6 | AUUCACCAAGGUAAUCGGGUG [Fam2.2 aminoacylation ribozyme variant] | 42.2 | 3.5 | 5.69 | 3.19 | 7.71 | 4.8
7 | AUUCACCAAGGUCAGCGGGUG [Fam2.2 aminoacylation ribozyme variant] | 29.3 | 4.01 | 4.83 | 3.95 | 5.4 | 4.65
8 | AUUCACCAAGGUCAUCGGAUG [Fam2.2 aminoacylation ribozyme variant] | 1.12 | 1.09 | 0.703 | 1.17 | 0.794 | 0.726
9 | AUUCACCAAGGUCAUCGGGAG [Fam2.2 aminoacylation ribozyme variant] | 4.38 | 1.36 | 1.19 | 1.11 | 1.57 | 1.27
10 | AUUCACCAAGGUCAUCGGGUG [Fam2.2 aminoacylation ribozyme variant] | 75.8 | 5.52 | 9.68 | 5.71 | 12.3 | 8.61
11 | AUUCACCAAGGUGAUCGGGUG [Fam2.2 aminoacylation ribozyme variant] | 17.6 | 2.63 | 3.28 | 2.98 | 4.13 | 4.15
12 | AUUCACCAAGUUCAUCGGGUG [Fam2.2 aminoacylation ribozyme variant] | 19.8 | 3.06 | 3.58 | 2.89 | 4.31 | 4.14
13 | AUUCACCAGGGUCAUCGGGUG [Fam2.2 aminoacylation ribozyme variant] | 57.5 | 4.8 | 7.51 | 5.45 | 9.42 | 6.99
14 | AUUCACCCACGUCAUCGGGUG [Fam2.2 aminoacylation ribozyme variant] | 37.1 | 2.76 | 3.91 | 3.23 | 6.88 | 3.99
15 | AUUCACCCAGGUCAUCCGGUG [Fam2.2 aminoacylation ribozyme variant] | 90.7 | 6.38 | 8.64 | 6.29 | 12.7 | 8.51
16 | AUUCACCCAGGUCAUCGCGUG [Fam2.2 aminoacylation ribozyme variant] | 123 | 8.24 | 16 | 8.43 | 19.4 | 13
17 | AUUCACCCAGGUCAUCGGGUG [Fam2.2 aminoacylation ribozyme variant] | 34.2 | 3.26 | 4.83 | 3.53 | 5.86 | 4.53
18 | AUUCACCCAGGUCAUCGUGUG [Fam2.2 aminoacylation ribozyme variant] | 3.46 | 0.798 | 1.04 | 1.04 | 1.29 | 1.1
19 | AUUCACCCAGGUUAUCGGGUG [Fam2.2 aminoacylation ribozyme variant] | 35.3 | 2.77 | 4.79 | 3.33 | 4.62 | 4.83
20 | AUUCACCCUGGUCAUCGGGUG [Fam2.2 aminoacylation ribozyme variant] | 71 | 5.16 | 10.6 | 5.5 | 11.5 | 10.6
21 | AUUCACCGACGUCAUCGGGUG [Fam2.2 aminoacylation ribozyme variant] | 55.1 | 5.71 | 10.2 | 6.24 | 12.9 | 9.46
22 | AUUCACCGAGAUCAUCGGGUG [Fam2.2 aminoacylation ribozyme variant] | 49.8 | 3.88 | 6.77 | 4.27 | 8.53 | 7.09
23 | AUUCACCGAGGGCAUCGGGUG [Fam2.2 aminoacylation ribozyme variant] | 30.9 | 4.62 | 5.18 | 5.15 | 8.06 | 7.83
24 | AUUCACCGAUGUCAUCGGGUG [Fam2.2 aminoacylation ribozyme variant] | 62.7 | 5.59 | 8.67 | 4.63 | 10.8 | 7.35
25 | AUUCACCGGGGUCAUCGGGUG [Fam2.2 aminoacylation ribozyme variant] | 80.5 | 6.47 | 8.15 | 7.4 | 10.7 | 9.14
26 | AUUCACCGUGGUCAUCGGGUG [Fam2.2 aminoacylation ribozyme variant] | 59.5 | 5.23 | 9.04 | 6.1 | 9.19 | 8.84
